The supplement of paper PMC10567573

B1: CLPTM1 (parent)
chain: MNLHVYISEHEHFTDFNATSALFW
B2: VDR (parent)
chain: LIKFQVGLKKLNLHEEEHVLLMAI

Variants of: B1
Assay: protein stability index of a GFP-peptide fusion (GPS, HEK-293T) (PSI 1-6); higher = more stable
Conditions: c terminus: a fixed tail appended
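Further: lentivirally expressed fusions sorted by FACS into six bins by GFP to DsRed ratio, PSI derived from sequencing read proportions per bin multiplied by bin number.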

Protein stability index, by site and new letter:
D15: W 3.89 | K 2.71 | E 2.73 | M 3 | T 3.63 | S 4.3 | Y 2.52 | Q 2.3
S20: E 2.37 | C 2.75 | G 2.69 | T 4.14 | V 2.29 | I 2.69 | F 2.51 | Y 3.45 | K 3.57 | M 2.64 | N 3.39 | D 4.08 | Q 2.59 | H 4.53 | R 2.1 | A 4.95
W24: H 1.75 | R 2.96 | Q 2.2 | P 2.76 | I 1.93 | Y 2.95 | K 1.88 | L 4.15 | F 4.25 | C 1.83 | S 3.64 | T 3.19 | D 3.34 | E 4.09 | N 2.98
F23: V 2.13 | E 1.81 | Q 2.56 | P 2.49 | Y 5.1 | L 5.95 | C 2.69 | N 2.46 | I 3.19 | R 2.46 | D 3.62 | H 3.78
A21: E 2.62 | V 2.4 | I 2.59 | F 1.95 | C 3.19 | H 2.09 | N 2.35 | T 2.67 | K 3.78 | G 3.69
A18: L 2.01 | W 2.76 | E 1.97 | V 2.92 | R 3.55 | G 3.77 | H 3.29 | K 4.8 | Q 5.84 | M 4.1 | T 1.84 | S 2.46 | F 4.2
T19: W 1.67 | E 2.59 | H 2.99 | I 3.09 | N 3.66 | D 2.48 | C 2.92 | Y 2.08 | V 1.89 | R 2.89 | M 1.52
N17: E 3.66 | I 3.01 | A 2.59 | R 2.01 | C 2.72 | G 2.38 | P 3.96 | K 3.02 | V 2.75 | H 2.13 | T 3.19 | S 2.44 | F 2.72
L22: S 1.97 | Y 2.2 | I 1.59 | R 1.1 | C 4.78 | Q 3.16 | G 4 | T 3.54 | H 2.6 | A 4.09
F16: T 1.87 | K 2.96 | Y 2.26 | W 2.71 | N 2.56 | S 2.19 | D 1.79 | H 3.52 | R 1.62 | I 1.71 | E 2.87 | G 2.76

Variants of: B2
Assay: as above
Conditions: c terminus: a fixed tail appended

Protein stability index of substitutions, site by site:
K10: D 3.4 | H 1.38 | M 2.47 | V 1.83 | L 4.27 | N 1.9 | T 2.23 | F 3.36 | P 3.19 | A 3.24 | E 2.11 | C 4.27
H14: G 4.41 | K 2.66 | Q 2.43 | P 2.53 | C 2.28 | Y 2.93 | D 2.21 | I 2.28 | E 4.65 | N 3.26
E17: R 3.74 | D 2.28 | L 1.8 | N 2.3 | Q 2.7 | F 1.95 | Y 3.14 | P 2.91 | M 2.37 | H 2.34
F4: L 4.2 | P 1.31 | K 3.04 | E 2.15 | W 1.5 | H 1.91 | S 3.39 | A 2.1 | R 2.72 | Q 2.09 | I 3.75 | N 4.44 | C 3 | D 3.17 | Y 2.64 | T 1.48 | M 1.75
V19: C 1.63 | A 1.58
L11: Y 2.28 | W 2.1 | T 2.03 | E 3.86 | Q 2 | I 3.2 | S 2.29 | C 3.35 | M 2.93 | K 2.98 | A 2.56 | F 2.14 | D 2.78 | P 2.34 | R 1.3
Q5: L 3.08 | W 3.59 | H 2.65 | P 2.97 | N 1.79 | D 4.34 | K 2.89 | V 2.77 | F 2.56
N12: G 2.62 | S 2.5 | F 2.51 | I 2.19 | T 2.92 | E 3.9
G7: W 3.47 | S 2.46 | Q 3.23 | F 1.75 | M 3.9 | P 1.3 | L 2.4 | D 2.61 | A 2.15 | Y 2.11 | T 2.82 | C 1.72 | H 3.58 | K 2.84
L1: M 3.33 | S 3.27 | Q 2.25 | V 2.24 | E 1.56 | D 2.9 | I 3.18 | F 2.01 | N 2.01 | H 2.73
L13: V 3.02 | E 1.4 | G 1.88 | D 1.74 | S 3.54 | K 3.2 | I 2.39 | Q 3.27 | W 2.81 | T 3.36 | R 3.69 | F 1.7 | P 2.73 | H 2.3 | M 3.14 | N 3.72
V6: C 3.2 | K 2.01 | H 4.18 | Q 1.74 | W 1.54 | A 2.24 | T 2.73 | L 2.91 | S 2.98 | G 2.2 | N 2.61 | D 1.47 | F 3.19 | M 3.76 | P 2.85
L8: K 2.85 | P 2.31 | N 2.82 | W 1.89 | M 3.04 | I 3.67 | T 2.62 | D 3.48 | S 3.06 | Q 1.56 | H 2.3 | F 3.06
I2: M 3.15 | D 2.05 | N 2.31 | L 3.02 | R 4.27 | H 1.87 | Q 3.14 | F 2.27 | P 2.73 | V 3 | T 2.77 | A 3.06 | Y 2.93
E15: Y 1.94 | V 2.61 | G 2.92 | L 3.71 | W 3.87 | P 2.38 | F 2.77 | K 2.5 | A 2.52 | Q 2.77 | S 2.96 | C 1.99 | T 3.96
K3: T 2.97 | W 2.91 | G 3.98 | P 1.89 | Q 1.21 | D 2.21
E16: Q 1.57 | R 2.24 | P 3.81 | Y 1.43 | K 1.77 | C 3.87 | L 3.15 | N 2.09 | T 2.81 | I 1.97
K9: M 3.2 | I 1.03 | F 3.38 | T 3.39 | D 2.79 | R 2.63 | A 2.27 | H 1.59 | L 2.97 | V 3.6 | C 5.08 | N 1.61 | Y 4.29 | S 3.17 | G 3.2 | P 3.16 | Q 3.62
H18: M 3.56 | A 4.04 | I 2.93 | N 3.21 | T 1.12 | E 2.33 | K 3.13
